Reference: publication PMC4630614

Target: UbcA1, ubiquitin-conjugating enzyme E2 from Agrocybe aegerita (Agrocybe aegerita)
Experiment: AUC; velocity sedimentation, Beckman XL-I, 4 °C, 40 μM protein, 50 mM Tris pH 7.5, 150 mM NaCl, 60,000 rpm, c(S) of Sedfit; monomer to dimer

- monomer : dimer ratio (monomer : dimer): 32.6
- stoichiometry N: 2
Substance: UbcA1, ubiquitin-conjugating enzyme E2 from Agrocybe aegerita
